Reference: patent publication US6423503 (HYBRITECH, dated 2002)

T1: α1antichymotrypsin (ACT) (human, UniProt P01011 24-423)
T1 construct: Used in excess in the incubation with PZ-N PSA
T1 sequence (looked up): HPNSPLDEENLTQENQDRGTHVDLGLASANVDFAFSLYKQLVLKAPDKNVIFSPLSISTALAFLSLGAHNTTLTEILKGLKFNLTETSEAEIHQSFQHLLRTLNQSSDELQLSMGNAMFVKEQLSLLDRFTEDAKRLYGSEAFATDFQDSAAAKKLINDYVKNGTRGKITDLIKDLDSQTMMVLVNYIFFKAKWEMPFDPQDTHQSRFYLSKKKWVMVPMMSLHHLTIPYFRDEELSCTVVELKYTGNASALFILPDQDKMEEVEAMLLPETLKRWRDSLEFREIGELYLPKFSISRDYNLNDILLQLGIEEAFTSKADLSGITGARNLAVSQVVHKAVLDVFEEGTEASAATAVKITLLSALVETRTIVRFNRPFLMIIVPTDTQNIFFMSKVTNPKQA

B1: [-4]pPSA (enzyme)
chain: not shown
notes: also called [-4]proPSA
B2: [+5]PSA (enzyme)
chain: not shown
notes: I equated '[+5]PSA' with 'PSA clipped after Gly4'; also called PSA clipped after Gly4
B3: [-1]pPSA (enzyme)
chain: not shown
B4: [-2]pPSA (enzyme)
chain: not shown
notes: also called [-2]proPSA

Target: T1, α1antichymotrypsin (ACT)
Assay: incubation with excess ACT, HIC-HPLC, N-terminal sequencing
Protocol: Figure 4: FIG. 4 is HIC-HPLC profile of the reaction mixture of PZ-N PSA incubated with excess ACT. […] Peak 2 is the residual excess active ACT. Peak 3 is the covalent PSA-ACT complex.
The original profile of this PZ-N sample is seen in FIG. 1. […] Peak 2 is the residual excess active ACT remaining after incubation. […] The [−2]pPSA is a truncated form of pPSA which contains the last two amino acids of the 7 amino acid pro leader peptide. PPSA is expressed with a heptapeptide pro leader sequence consisting of APLILSR. Thus, the [−2] pPSA contains the serine-arginine dipeptide on the N-terminal isoleucine of mature PSA. The minor peak eluting at 12 min contains the [−4]pPSA. The retention time of [−4]pPSA has been reported previously (10).

Row | Binder | binding result
1 | B1 | no binding
2 | B2 | no binding
3 | B3 | no binding
4 | B4 | no binding
